First the molecules themselves.
B3: hexapeptide HRMVRG (SEQ ID NO: 4) (peptide)
peptide: HRMVRG-PEGA1900
modifications: reading uncertain
notes: also called HRMVRG-PEGA1900; hexapeptide partner

The target in assay [1] is B3. As to the kind of experiment: pairs of beads of two libraries adhering to each other, identified by MSMS. Here is the method:
This example illustrates how to identify a β-body recognizing a linear peptide. A split-mix library of 21.000.000 β-bodies according to the invention were prepared by combinatorial synthesis as described in Example 4 above. This was performed on 100 μm beads with no fluorescence. A second split mix library of 470.000 hexapeptides were prepared in a similar manner except that this library was prepared on larger 400 μm beads with fluorescence label attached to some functional groups. The two libraries were mixed and pairs of beads adhering to each other in pairs with one large fluorescent and one small non-fluorescent bead were collected and the two peptides were identified by MSMS. […] EGFP is an abbreviation of Enhanced Green Fluorescent Protein.

Assay [2] concerns the target T1, β-body (2) TTYTYPGDTFTI (SEQ ID NO: 58) (with a fluorescent probe (2-F*) or on beads, by assay).
T1 construct: the assay field says which was which; also called 2-F*; bead-(2)
T1 peptide: TTYTYPGDTFTI
In words: fluorescent β-body on beads modified with (2).

Assay [3] concerns the target T2, Enhanced Green Fluorescent Protein (UniProt P42212 1-238 = GFP).
T2 construct: treated as one molecule; also called EGFP; eGFP
In words: green fluorescence on HRMVRG-PEGA1900 beads.

Ends that are not written are not given here. PEGA1900 = not defined here

B1: β-body KTGTQNLTGPGRTHTQTATEG (SEQ ID NO: 3) (peptide)
peptide: KTGTQNLTGPGRTHTQTATEG
notes: Found from a one-bead-one-compound library K(TX)4PG(XT)4EG
As to B1, the binding result in assay [1] is recorded as “binds”.

B2: β-body (3) TFTFTFPGLTRTHT (SEQ ID NO: 59) (designed binder)
peptide: TFTFTFPGLTRTHT
modifications: also: with a fluorescent probe, place not given here
notes: The text calls it a modified version of (2); also called fluorescent-(3)
For the molecule B2, the “fold reduction of binding against fluorescent-(1)” value in assay [2] was 7 fold.

As for B3, in assay [3], the binding result is reported as “no binding”.

Values taken from patent US20190284243A1 (UNIVERSITY OF COPENHAGEN, published 2019).
